# Reference: the supplement of paper PMC10065799, “High-throughput profiling of sequence recognition by tyrosine kinases and SH2 domains using bacterial peptide display” (eLife, 2023)
# Key:
# FGFR3 = FGFR3 (UniProt P22607); assay: phosphorylation enrichment, bacterial display (enrichment ratio); higher = better substrate or ligand; peptides without Tyr show the background
# FGFR1 = FGFR1 (UniProt P11362); assay: as above
# Fyn = Fyn (UniProt P06241); assay: as above
# Jak2 = Jak2 (UniProt O60674); assay: as above
# c-Abl (mouse) = assay: as above
# Fer (mouse) = assay: as above
# MERTK = MERTK (UniProt Q12866); assay: as above
# AncSZ = assay: as above
# EPHB1 = EPHB1 (UniProt P54762); assay: as above
# Fes = Fes (UniProt P07332); assay: as above
# EPHB2 = EPHB2 (UniProt P29323); assay: as above
# c-Src = assay: as above
# Hck = Hck (UniProt P08631); assay: as above
# Grb2 SH2 = Grb2 SH2 (UniProt P62993); assay: SH2 binding enrichment of the phosphorylated peptide, bacterial display (enrichment ratio); higher = better substrate or ligand; peptides without Tyr show the background
# SHP2-C SH2 = assay: as above
# c-Src SH2 = assay: as above
# 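Wherever SH2 binding enrichment of the phosphorylated peptide, bacterial display is given: peptide library displayed on the E. coli surface as eCPX fusions, selected cells deep-sequenced, score is each peptide's frequency after selection divided by its frequency in the input.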
# 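Wherever phosphorylation enrichment, bacterial display is given: 11-residue human phosphosite peptides and single-mutation variants displayed on the E. coli surface, counted by deep sequencing, each peptide's frequency after selection divided by its frequency in the unselected input library; frequency after pTyr selection over input frequency; kinase dosed for 20-30% of maximal phosphorylation in three min.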
# Fyn, sequence (P06241 whole entry, looked up): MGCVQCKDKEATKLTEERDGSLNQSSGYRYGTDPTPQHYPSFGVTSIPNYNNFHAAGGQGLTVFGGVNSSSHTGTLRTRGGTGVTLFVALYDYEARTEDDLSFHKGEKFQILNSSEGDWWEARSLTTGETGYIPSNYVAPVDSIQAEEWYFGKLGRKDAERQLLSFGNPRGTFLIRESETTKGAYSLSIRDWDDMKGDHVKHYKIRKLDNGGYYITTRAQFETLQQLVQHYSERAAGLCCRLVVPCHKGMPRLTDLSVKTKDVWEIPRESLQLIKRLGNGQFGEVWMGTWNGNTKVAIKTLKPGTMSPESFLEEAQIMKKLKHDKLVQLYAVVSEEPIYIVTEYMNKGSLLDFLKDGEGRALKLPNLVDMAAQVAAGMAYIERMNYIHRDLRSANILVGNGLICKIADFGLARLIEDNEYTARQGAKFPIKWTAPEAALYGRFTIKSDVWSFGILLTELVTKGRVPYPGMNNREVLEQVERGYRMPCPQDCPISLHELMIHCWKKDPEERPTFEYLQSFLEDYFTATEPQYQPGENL
# Fes, sequence (P07332 whole entry, looked up): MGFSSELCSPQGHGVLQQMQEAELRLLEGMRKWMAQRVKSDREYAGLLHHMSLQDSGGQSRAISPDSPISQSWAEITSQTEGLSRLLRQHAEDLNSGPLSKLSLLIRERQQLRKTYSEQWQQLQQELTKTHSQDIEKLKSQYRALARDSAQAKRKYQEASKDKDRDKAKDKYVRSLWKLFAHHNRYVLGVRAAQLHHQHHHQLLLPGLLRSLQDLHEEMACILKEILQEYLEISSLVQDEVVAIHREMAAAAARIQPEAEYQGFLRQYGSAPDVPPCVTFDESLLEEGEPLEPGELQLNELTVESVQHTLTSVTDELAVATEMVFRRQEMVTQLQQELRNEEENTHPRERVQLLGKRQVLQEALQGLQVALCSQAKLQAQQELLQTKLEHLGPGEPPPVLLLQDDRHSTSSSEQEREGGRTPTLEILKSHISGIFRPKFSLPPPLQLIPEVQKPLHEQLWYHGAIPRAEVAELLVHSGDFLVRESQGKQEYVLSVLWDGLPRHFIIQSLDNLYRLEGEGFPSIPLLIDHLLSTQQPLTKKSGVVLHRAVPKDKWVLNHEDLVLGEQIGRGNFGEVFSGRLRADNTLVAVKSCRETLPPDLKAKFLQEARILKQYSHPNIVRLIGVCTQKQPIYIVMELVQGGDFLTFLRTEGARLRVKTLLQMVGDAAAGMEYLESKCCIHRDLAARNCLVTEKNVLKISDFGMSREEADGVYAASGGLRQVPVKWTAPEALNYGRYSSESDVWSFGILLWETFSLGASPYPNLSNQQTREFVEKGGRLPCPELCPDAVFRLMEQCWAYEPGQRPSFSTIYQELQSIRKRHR
# MERTK, sequence (Q12866 whole entry, looked up): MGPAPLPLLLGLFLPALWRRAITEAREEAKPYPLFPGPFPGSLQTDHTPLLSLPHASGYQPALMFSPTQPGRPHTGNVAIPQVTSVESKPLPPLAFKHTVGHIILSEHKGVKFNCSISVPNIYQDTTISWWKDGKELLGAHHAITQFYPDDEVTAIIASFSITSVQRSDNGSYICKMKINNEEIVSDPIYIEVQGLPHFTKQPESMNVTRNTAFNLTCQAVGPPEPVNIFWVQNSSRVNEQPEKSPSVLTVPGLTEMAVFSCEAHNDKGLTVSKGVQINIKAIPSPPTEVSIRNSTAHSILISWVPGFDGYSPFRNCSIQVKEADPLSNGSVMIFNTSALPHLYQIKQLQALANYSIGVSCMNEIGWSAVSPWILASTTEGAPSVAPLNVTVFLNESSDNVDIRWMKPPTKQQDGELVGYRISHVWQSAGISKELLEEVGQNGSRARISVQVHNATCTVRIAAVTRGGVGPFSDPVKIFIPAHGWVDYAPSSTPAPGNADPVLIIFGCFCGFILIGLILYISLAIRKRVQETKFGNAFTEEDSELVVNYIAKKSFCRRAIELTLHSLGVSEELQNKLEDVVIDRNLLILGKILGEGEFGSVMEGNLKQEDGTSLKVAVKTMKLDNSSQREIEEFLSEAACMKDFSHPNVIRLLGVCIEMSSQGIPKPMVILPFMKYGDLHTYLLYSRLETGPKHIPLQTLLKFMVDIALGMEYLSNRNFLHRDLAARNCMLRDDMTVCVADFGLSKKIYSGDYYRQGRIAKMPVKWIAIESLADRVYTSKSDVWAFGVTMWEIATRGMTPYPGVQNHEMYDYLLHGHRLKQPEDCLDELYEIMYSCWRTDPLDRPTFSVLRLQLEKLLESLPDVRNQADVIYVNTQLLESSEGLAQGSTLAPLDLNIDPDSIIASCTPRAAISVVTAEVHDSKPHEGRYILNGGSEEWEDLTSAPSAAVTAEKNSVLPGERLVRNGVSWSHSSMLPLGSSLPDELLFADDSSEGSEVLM
# Jak2, sequence (O60674 whole entry, looked up): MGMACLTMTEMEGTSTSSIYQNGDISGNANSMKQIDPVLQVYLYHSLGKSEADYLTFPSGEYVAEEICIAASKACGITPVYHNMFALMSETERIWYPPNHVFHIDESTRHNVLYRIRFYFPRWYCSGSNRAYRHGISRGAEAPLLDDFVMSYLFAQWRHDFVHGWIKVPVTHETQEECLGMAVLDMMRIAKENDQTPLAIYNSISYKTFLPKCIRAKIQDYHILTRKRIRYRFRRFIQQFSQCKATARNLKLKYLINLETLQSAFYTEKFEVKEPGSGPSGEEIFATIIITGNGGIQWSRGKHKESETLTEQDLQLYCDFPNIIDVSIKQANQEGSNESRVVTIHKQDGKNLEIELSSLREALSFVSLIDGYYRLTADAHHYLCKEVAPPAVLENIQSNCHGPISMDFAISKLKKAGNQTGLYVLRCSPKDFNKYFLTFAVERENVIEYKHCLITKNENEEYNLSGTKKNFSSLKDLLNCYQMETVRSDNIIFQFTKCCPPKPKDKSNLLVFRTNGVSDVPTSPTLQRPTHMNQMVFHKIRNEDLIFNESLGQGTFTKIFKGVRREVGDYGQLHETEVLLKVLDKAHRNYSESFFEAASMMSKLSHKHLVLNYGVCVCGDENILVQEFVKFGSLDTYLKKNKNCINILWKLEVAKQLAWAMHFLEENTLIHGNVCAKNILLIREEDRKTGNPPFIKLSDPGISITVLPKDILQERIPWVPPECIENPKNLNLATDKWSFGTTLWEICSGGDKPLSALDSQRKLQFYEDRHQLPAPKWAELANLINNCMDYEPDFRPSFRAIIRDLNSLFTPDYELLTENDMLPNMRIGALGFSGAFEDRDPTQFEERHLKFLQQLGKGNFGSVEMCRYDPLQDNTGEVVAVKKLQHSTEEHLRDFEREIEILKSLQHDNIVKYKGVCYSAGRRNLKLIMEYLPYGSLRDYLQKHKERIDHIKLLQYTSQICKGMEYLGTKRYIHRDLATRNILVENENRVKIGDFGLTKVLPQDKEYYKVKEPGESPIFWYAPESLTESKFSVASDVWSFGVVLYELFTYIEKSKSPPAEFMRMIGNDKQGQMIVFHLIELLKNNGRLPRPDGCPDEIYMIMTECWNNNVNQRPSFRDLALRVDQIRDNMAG
# FGFR3, sequence (P22607 whole entry, looked up): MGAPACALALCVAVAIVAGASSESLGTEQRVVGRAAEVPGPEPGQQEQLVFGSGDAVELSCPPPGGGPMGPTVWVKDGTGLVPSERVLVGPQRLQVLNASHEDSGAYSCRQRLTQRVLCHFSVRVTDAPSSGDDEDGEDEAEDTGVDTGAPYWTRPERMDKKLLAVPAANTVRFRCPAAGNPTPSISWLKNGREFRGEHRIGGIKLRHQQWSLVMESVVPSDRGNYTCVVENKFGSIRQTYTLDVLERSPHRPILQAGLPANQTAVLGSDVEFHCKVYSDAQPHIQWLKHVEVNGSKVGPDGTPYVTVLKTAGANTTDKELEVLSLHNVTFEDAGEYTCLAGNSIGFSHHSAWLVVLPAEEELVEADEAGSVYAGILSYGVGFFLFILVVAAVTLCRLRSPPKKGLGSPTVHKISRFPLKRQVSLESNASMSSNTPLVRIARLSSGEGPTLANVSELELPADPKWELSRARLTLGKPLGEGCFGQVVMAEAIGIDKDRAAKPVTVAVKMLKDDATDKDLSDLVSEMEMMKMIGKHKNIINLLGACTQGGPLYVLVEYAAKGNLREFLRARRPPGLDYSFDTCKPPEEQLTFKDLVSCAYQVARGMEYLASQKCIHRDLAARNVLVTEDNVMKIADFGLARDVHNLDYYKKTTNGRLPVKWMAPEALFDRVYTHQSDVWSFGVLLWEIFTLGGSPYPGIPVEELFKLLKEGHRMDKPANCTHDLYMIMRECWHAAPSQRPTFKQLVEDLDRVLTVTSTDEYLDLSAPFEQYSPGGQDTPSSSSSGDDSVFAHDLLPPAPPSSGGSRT
# Hck, sequence (P08631 whole entry, looked up): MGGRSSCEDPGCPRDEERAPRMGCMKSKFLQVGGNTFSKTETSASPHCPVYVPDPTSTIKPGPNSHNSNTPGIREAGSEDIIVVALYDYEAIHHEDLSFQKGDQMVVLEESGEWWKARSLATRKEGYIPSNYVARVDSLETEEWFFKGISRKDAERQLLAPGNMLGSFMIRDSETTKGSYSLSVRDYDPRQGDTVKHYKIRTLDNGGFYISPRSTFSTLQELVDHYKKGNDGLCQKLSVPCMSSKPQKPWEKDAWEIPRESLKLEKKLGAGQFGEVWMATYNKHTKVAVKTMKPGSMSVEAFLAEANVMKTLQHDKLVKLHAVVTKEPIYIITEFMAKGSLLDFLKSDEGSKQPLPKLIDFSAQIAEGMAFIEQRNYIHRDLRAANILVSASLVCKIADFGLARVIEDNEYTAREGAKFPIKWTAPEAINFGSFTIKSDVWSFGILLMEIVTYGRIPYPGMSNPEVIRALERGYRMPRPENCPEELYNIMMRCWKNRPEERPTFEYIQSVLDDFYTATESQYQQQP
Sequence,SH2 binding enrichment (Grb2 SH2),SH2 binding enrichment (SHP2-C SH2),SH2 binding enrichment (c-Src SH2),phosphorylation enrichment (FGFR3),phosphorylation enrichment (FGFR1),phosphorylation enrichment (Fyn),phosphorylation enrichment (Jak2),phosphorylation enrichment (c-Abl (mouse)),phosphorylation enrichment (Fer (mouse)),phosphorylation enrichment (MERTK),phosphorylation enrichment (AncSZ),phosphorylation enrichment (EPHB1),phosphorylation enrichment (Fes),phosphorylation enrichment (EPHB2),phosphorylation enrichment (c-Src),phosphorylation enrichment (Hck)
KKGIVYVFNGR [ITGAV_Y404_I405V],2.05,1.91,1.32,0.538,0.527,0.477,0.73,0.443,0.441,0.48,0.756,0.458,0.677,0.449,0.395,0.486
KLPYLYDDPFS [GPX2_Y127_P126L],0.765,0.797,2.42,0.689,0.489,0.695,0.997,1.12,1.28,2.58,1.22,3.22,1.3,4.17,0.906,1.46
KLQKKYGPIFS [CYP17A1_Y60_YF],0.882,0.754,0.461,0.415,0.308,0.38,0.583,0.505,0.324,0.39,0.555,0.377,0.503,0.39,0.489,0.383
KLQKKYGPIYS [CYP17A1_Y60],1.01,0.819,0.588,0.438,0.318,1.59,0.378,0.451,0.39,0.422,0.433,0.361,0.468,0.351,1.17,2.26
KLQKYYRKNPD [EHHADH_Y683_Q685K],0.905,0.604,0.597,0.332,0.311,0.359,0.486,0.394,0.283,0.369,0.399,0.353,0.501,0.415,0.275,0.341
KLQKYYRQNPD [EHHADH_Y683],0.948,0.694,0.503,0.419,0.413,0.348,0.474,0.482,0.417,0.371,0.565,0.765,0.591,0.464,0.42,0.448
KMGNIYRTEYG [MRPL3_Y265],0.884,0.73,0.529,0.526,0.413,0.475,0.577,0.496,0.334,0.539,0.621,0.488,0.701,0.373,0.536,0.477
KNEVLYDGENH [ARFGEF1_Y314],0.978,0.687,0.665,0.475,0.399,0.422,0.763,0.668,0.401,0.398,0.943,0.403,0.836,0.525,0.418,0.436
KNSFKYFMSDD [ATRX_Y203_C200S_YF],0.942,0.587,0.556,0.638,0.416,0.392,0.869,0.628,0.412,0.418,0.856,0.475,1.02,0.55,0.425,0.478
KPGLKYVTYGN [GALNTL5_Y404],1.34,2.11,1.11,0.409,0.394,0.39,0.498,0.389,0.379,0.345,0.505,0.38,0.547,0.624,0.363,0.484
KQMEQYMSFHK [HCN1_Y417_V414M],0.822,0.429,0.576,0.547,0.408,1.47,0.516,0.416,0.313,0.419,0.5,0.393,0.573,0.369,1.76,4.18
KQRKEYMHRWQ [IQGAP2_Y710_R714W],2.29,2.21,2.02,1.16,0.577,0.523,1.68,1.05,0.617,0.519,0.846,0.652,1.02,0.746,0.584,0.613
KRAIGHYSATS [FAM120A_Y327_Y327H],1.12,0.564,0.778,0.423,0.319,0.346,0.439,0.474,0.356,0.355,0.459,0.305,0.498,0.286,0.434,0.312
KRAIGYYSATS [FAM120A_Y327],0.864,0.821,1.41,0.389,0.412,0.456,0.439,0.437,0.383,0.55,0.477,0.366,0.472,0.387,0.359,0.406
KRLDGYVLEGW [IGSF9_Y656_R661W],0.844,0.819,2.36,0.511,0.542,0.484,0.651,0.532,0.506,0.381,0.712,0.48,0.835,0.484,0.418,0.453
KTKLGYSPLHQ [ANK1_Y735],1.2,1.05,0.849,0.385,0.31,0.373,0.397,0.691,0.354,0.399,0.454,0.296,0.48,0.326,0.369,0.322

# Now from value to sequence, other results behind:
SH2 binding enrichment (Grb2 SH2),SH2 binding enrichment (SHP2-C SH2),SH2 binding enrichment (c-Src SH2),Sequence,phosphorylation enrichment (FGFR3),phosphorylation enrichment (FGFR1),phosphorylation enrichment (Fyn),phosphorylation enrichment (Jak2),phosphorylation enrichment (c-Abl (mouse)),phosphorylation enrichment (Fer (mouse)),phosphorylation enrichment (MERTK),phosphorylation enrichment (AncSZ),phosphorylation enrichment (EPHB1),phosphorylation enrichment (Fes),phosphorylation enrichment (EPHB2),phosphorylation enrichment (c-Src),phosphorylation enrichment (Hck)
0.821,0.694,0.532,KKFPDYIQSAM [SGMS2_Y59_I62S_YF],0.471,0.479,0.401,0.512,0.472,0.332,0.364,0.621,0.348,0.65,0.424,0.521,0.482
0.943,1.34,0.53,KLFYIYTSGTT [SLC27A4_Y245],0.755,0.449,0.455,1.51,0.767,0.556,0.5,1.24,0.61,1.37,0.727,0.575,0.506
2.38,0.729,1.39,KLGDVYVNDAF [PGK1_Y161],0.63,0.557,0.552,0.801,0.574,0.547,0.395,0.734,0.467,0.86,0.571,0.423,0.488
0.748,0.652,0.447,KLIETCFSKNY [PLP1_Y50_Y50C],0.739,0.473,0.456,1.13,0.973,0.47,0.474,1.07,0.576,1.38,0.555,0.524,0.621
0.773,0.723,0.378,KLKRSYPSPDI [USP8_Y717_S718P],0.411,0.352,0.374,0.58,0.547,0.339,0.467,0.436,0.374,0.546,0.291,0.469,0.381
1.15,1.04,0.851,KLLLKYSFHDV [RNF213_Y4141],0.808,0.439,0.418,1.57,0.878,0.537,0.4,1.27,0.56,1.31,0.598,0.436,0.506
0.838,0.641,0.693,KMLEKYKERLN [TLK2_Y259],0.557,0.46,0.43,0.834,1.27,0.444,0.475,0.634,0.381,0.789,0.5,0.463,0.492
0.979,1.01,0.595,KNKKDYFDMFE [SLC26A3_Y526_YF],2.62,3.49,0.453,0.706,0.882,0.418,0.568,0.864,0.779,0.909,0.585,0.524,0.444
0.796,0.739,0.644,KNRDVYSSDYF [USP24_Y2134],1.15,2.07,1.19,0.945,0.656,0.495,5.77,1.1,3.39,0.944,4.03,2.67,1
0.951,0.788,0.815,KPGLVYNKVNP [SPRED3_Y72],0.453,0.383,0.424,0.936,0.675,0.409,0.402,0.704,0.413,0.595,0.395,0.539,0.603
0.838,0.831,0.412,KPLMPYMRFSR [SMARCE1_Y73_YF],0.547,0.466,0.591,0.843,0.99,0.352,0.479,1.3,0.385,0.872,0.464,0.508,0.493
0.999,0.941,0.64,KRISCYEARFQ [PFKFB3_Y194_S197R_YF],0.496,0.344,0.382,0.647,0.728,0.399,0.395,0.669,0.398,0.845,0.476,0.497,0.425
0.915,0.682,0.591,KRISCYEARYQ [PFKFB3_Y194_S197R],0.523,0.392,0.479,0.735,0.526,0.4,0.357,0.708,0.466,0.746,0.415,0.365,0.388
0.721,0.75,0.589,KSAAIYNPVIF [RHO_Y301_YF],0.557,0.567,5.56,0.634,1.11,16.1,4.6,0.757,0.559,0.939,0.519,4.71,8.01
1.02,0.626,4.1,KSIQLYDTPYE [SHB_Y297_G293S],0.643,0.521,0.827,0.921,1.03,3.02,4.79,1.29,11.6,1.07,15.8,0.986,1.76
0.93,0.781,0.628,KTGDFYDLFGG [PTPN11_Y63_N58K_YF],0.6,0.523,3.14,0.781,0.627,0.716,2.74,0.956,0.577,0.879,0.463,2.65,2.04
1.47,1.31,1.14,KWHREYNSKYV [RICTOR_Y835],0.42,0.37,0.398,0.513,0.461,0.32,0.339,0.461,0.348,0.414,0.401,0.294,0.371
